Columns and labels:
[1] = target: c-Met recombinant chimera (R&D Systems) (UniProt P08581); assay: SPR; c-Met chimera amine-coupled to a CM5 chip (200-1000 RU), Biacore 2000, 25 °C, HBS-EP pH 7.4, 5 uL/min; CSF diluted 1:1 in PBS flowed over; samples: septic nosocomial meningitis (n = 33)
[2] = target: c-Met recombinant chimera (R&D Systems) (UniProt P08581); assay: SPR; c-Met chimera amine-coupled to a CM5 chip (200-1000 RU), Biacore 2000, 25 °C, HBS-EP pH 7.4, 5 uL/min; CSF diluted 1:1 in PBS flowed over; samples: septic community-acquired meningitis (n = 22)

Sequence of UniProt P08581 (P08581 25-932, change not shown): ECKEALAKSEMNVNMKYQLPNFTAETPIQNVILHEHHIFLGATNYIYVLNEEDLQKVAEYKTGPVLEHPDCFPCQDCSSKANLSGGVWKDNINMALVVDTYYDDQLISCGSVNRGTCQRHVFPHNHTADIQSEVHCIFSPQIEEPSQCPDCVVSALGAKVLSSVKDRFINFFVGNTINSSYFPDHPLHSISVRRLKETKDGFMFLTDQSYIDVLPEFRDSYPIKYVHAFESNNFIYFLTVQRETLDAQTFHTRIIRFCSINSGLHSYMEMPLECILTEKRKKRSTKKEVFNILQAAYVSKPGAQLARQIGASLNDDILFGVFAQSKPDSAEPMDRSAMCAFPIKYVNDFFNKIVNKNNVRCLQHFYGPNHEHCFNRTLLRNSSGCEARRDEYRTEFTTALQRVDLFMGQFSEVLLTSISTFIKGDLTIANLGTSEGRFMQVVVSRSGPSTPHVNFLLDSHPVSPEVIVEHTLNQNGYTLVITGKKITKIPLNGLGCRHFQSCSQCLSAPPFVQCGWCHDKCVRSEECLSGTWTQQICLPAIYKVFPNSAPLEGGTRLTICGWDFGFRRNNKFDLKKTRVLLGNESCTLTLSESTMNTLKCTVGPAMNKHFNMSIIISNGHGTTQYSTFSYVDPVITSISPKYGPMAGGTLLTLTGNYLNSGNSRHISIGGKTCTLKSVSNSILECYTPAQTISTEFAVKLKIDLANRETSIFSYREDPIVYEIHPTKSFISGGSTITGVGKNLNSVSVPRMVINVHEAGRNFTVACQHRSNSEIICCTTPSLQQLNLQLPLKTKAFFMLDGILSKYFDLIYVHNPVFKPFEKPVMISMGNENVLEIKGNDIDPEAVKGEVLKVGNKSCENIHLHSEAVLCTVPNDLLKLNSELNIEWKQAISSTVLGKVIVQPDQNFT

## Hepatocyte growth factor (CSF-derived) (ligand)
[1]
  C-Met binding (RU), median of the group: 27.3 RU
[2]
  C-Met binding (RU), median of the group: 56 RU
